Residue numbers refer to the chain shown, from its start.
T1: human LAG-3 domain 1-2 Fc fusion, point mutation #33 P86A (human, UniProt P18627 23-266)
T1 construct: not shown: human IgG1 Fc, AA P101-K330
T1 sequence: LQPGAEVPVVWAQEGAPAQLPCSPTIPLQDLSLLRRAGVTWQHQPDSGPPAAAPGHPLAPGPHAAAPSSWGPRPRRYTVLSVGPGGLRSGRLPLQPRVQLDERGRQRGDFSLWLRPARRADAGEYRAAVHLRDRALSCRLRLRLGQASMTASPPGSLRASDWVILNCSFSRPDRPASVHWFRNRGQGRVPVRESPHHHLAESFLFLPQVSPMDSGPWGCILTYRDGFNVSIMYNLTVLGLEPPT

T2: human LAG-3 domain 1-2 Fc fusion, point mutation #5 P46A (human, UniProt P18627 23-266)
T2 construct: not shown: human IgG1 Fc, AA P101-K330
T2 sequence: T1 sequence with P24A, A64P

T3: human LAG-3 domain 1-2 Fc fusion, point mutation #50 P106A (human, UniProt P18627 23-266)
T3 construct: not shown: human IgG1 Fc, AA P101-K330
T3 sequence: T1 sequence with A64P, P84A

T4: human LAG-3 domain 1-2 Fc fusion, point mutation #63 D123A (human, UniProt P18627 23-266)
T4 construct: not shown: human IgG1 Fc, AA P101-K330
T4 sequence: T1 sequence with A64P, D101A

T5: human LAG-3 domain 1-2 Fc fusion, point mutation #65 R125A (human, UniProt P18627 23-266)
T5 construct: not shown: human IgG1 Fc, AA P101-K330
T5 sequence: T1 sequence with A64P, R103A

T6: human LAG-3 domain 1-2 Fc fusion, point mutation #74 P138A (human, UniProt P18627 23-266)
T6 construct: not shown: human IgG1 Fc, AA P101-K330
T6 sequence: T1 sequence with A64P, P116A

T7: human LAG-3 domain 1-2 Fc fusion, point mutation #46 Y99A (human, UniProt P18627 23-266)
T7 construct: not shown: human IgG1 Fc, AA P101-K330
T7 sequence: T1 sequence with A64P, Y77A

T8: human LAG-3 domain 1-2 Fc fusion, point mutation #71 D131A (human, UniProt P18627 23-266)
T8 construct: not shown: human IgG1 Fc, AA P101-K330
T8 sequence: T1 sequence with A64P, D109A

T9: human LAG-3 domain 1-2 Fc fusion, point mutation #14 T62A (human, UniProt P18627 23-266)
T9 construct: not shown: human IgG1 Fc, AA P101-K330
T9 sequence: T1 sequence with T40A, A64P

B1: Fab fragment of antibody 15532 (Fab, V domains shown, not shown: a dimerising Fc or GST)
VH: QVQLQQWGAGLLRPSETLSLTCAVYGESFSGYYWNWIRQPPGKGLEWIGEINHSGSTNYNPSLKSRVTISVDTSKTQFSLKLSSVTAADTAVYYCARGWDLLDWNDYWNEYWGQGTLVTVSS
VL: EIVLTQSPATLSLSPGERATLSCRASQSVSSYLAWYQQKPGQAPRLLIYDASNRATGIPARFSGSGSGTDFTLTISSLEPEDFAVYYCQQRSNWPLTFGGGTKVEIKR
notes: monomeric Fab made by GingisKHAN digestion of the IgG1
B2: Fab fragment of antibody 15431 (Fab, V domains shown, not shown: a dimerising Fc or GST)
VH: QVQLQQSGPGLVKPSQTLSLTCAISGDSVSSNSAAWNWIRQSPSRGLEWLGRTYYRSKWYNDYAVSVKSRITINPDTSKNQFSLQLNSVTPEDTAVYYCARDDDWNDFDYWGQGTLVTVSS
VL: B1 VL
notes: as for B1
B3: Fab fragment of antibody 15572 (Fab, V domains shown, not shown: a dimerising Fc or GST)
VH: QLQLQESGPGLVKPSETLSLTCTVSGDSISSSSYYWGWIRQPPGKGLEWIGSIFYSGNTYYNPSLKSRVTISVDTSKNQFSLKLSSVTAADTAVYYCAREDDFLTDYYGAFDIWGQGTMVTVSS
VL: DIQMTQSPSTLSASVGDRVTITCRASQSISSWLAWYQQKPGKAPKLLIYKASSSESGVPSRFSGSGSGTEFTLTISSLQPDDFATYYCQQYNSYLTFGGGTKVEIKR
notes: as for B1
B4: Fab fragment of antibody 15011 (Fab, V domains shown, not shown: a dimerising Fc or GST)
VH: EVQLLESGGGLVQPGGSLRLSCAASGFDFRSYAMMWVRQAPGKGLEWVGGINGEVGGSNTYYAPAVKGRATISRDNSKNTLYLQMNSLRAEDTAVYYCVKGAGACGICNDDIDAWGQGTLVTVSS
VL: SYELTQDPAVSVALGQTVRITCSGAGSYAGSYYYGWHQQKPGQAPVTVIYDNDKRPSNIPDRFSGSSSGNTASLTITGAQAEDEADYYCGSTNDNDDGGLFGSGTKVTVLG
notes: as for B1

Key:
Experiment in all cases: SPR, Fab over captured mutant LAG-3-Fc;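 note: fc fusion variants captured on anti-human IgG Fc sensor, Fab injected with association then dissociation phases, KD obtained from Langmuir one-to-one fit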
[1] = molecular target: T1, human LAG-3 domain 1-2 Fc fusion, point …
[2] = molecular target: T2, human LAG-3 domain 1-2 Fc fusion, point …
[3] = molecular target: T3, human LAG-3 domain 1-2 Fc fusion, point …
[4] = molecular target: T4, human LAG-3 domain 1-2 Fc fusion, point …
[5] = molecular target: T5, human LAG-3 domain 1-2 Fc fusion, point …
[6] = molecular target: T6, human LAG-3 domain 1-2 Fc fusion, point …
[7] = molecular target: T7, human LAG-3 domain 1-2 Fc fusion, point …
[8] = molecular target: T8, human LAG-3 domain 1-2 Fc fusion, point …
[9] = molecular target: T9, human LAG-3 domain 1-2 Fc fusion, point …

Row | Binder | KD mutant/KD wild type [1] | KD mutant/KD wild type [2] | KD mutant/KD wild type [3] | KD mutant/KD wild type [4] | KD mutant/KD wild type [5] | KD mutant/KD wild type [6] | KD mutant/KD wild type [7] | KD mutant/KD wild type [8] | KD mutant/KD wild type [9] | binding result [2] | binding result [3] | binding result [6] | binding result [7] | binding result [8] | binding result [9]
1 | B1 | 6.1 fold | 4 fold | 2.7 fold | 1 fold | 0.9 fold | 2.7 fold | 4.1 fold | 4.2 fold | 4.2 fold | – | – | – | – | – | –
2 | B2 | 0.6 fold | – | – | 0.9 fold | 1.1 fold | – | – | – | – | no binding (tested: 300 nM) | no binding (tested: 300 nM) | no binding (tested: 300 nM) | no binding (tested: 300 nM) | no binding (tested: 300 nM) | no binding (tested: 300 nM)
3 | B3 | 0.7 fold | – | – | 0.5 fold | 1.1 fold | – | – | – | – | no binding (tested: 300 nM) | no binding (tested: 300 nM) | no binding (tested: 300 nM) | no binding (tested: 300 nM) | no binding (tested: 300 nM) | no binding (tested: 300 nM)
4 | B4 | 0.7 fold | 0.7 fold | 4.6 fold | 0.8 fold | 1.1 fold | 0.7 fold | 0.5 fold | 0.6 fold | 0.6 fold | – | – | – | – | – | –

Reference: patent US20220363757A1 (SYMPHOGEN A S, published 2022)
